Source: the nanobody polyreactivity screen of Harvey et al. (2022)

Assay: yeast display, Sf9 membrane polyspecificity reagent, FACS + sequencing; frameworks hold sequencing errors
Procedure, shortened: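 A synthetic nanobody library was expressed on Saccharomyces cerevisiae BJ5465 by galactose induction for 36–48 hours. The library was stained for 1 hour at 4 °C with 10% biotinylated, detergent-solubilized Sf9 membrane reagent and enriched with streptavidin microbeads before FACS. Low and high (top ~1%) gates were set on anti-HA fluorescence for expression and streptavidin fluorescence for reagent binding, and each polyreactivity label reflects the gate of origin.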

Row | Sequence | polyreactivity (PSR sort gate)
1 | QVQLVESGGGLVQAGGSLRLSCDASGSTFYYNAMGWYRQAPGKERELVADISRGGSTYYADSVKGRFTISRDNAKNTVYLQMNSLKPEDTAVYDCAAQTYLLSQWWWFDIDYGYWGQGTQVTVSS | low polyreactivity
2 | QVQLVESGGGLVQAGGSLRLSCAASGSTFLLYDKGWYRQAPGKERELVAAITWSGGSTYYADSVKGRFTISRDNAKNTVYVQMNSLIPEDTAVYYCAADSLGDRYYYWGQGTQVTVSS | low polyreactivity
3 | QVQHVESGGGLVQAGGSLRLSCAASGSIISSYAMGRYRQAPGKERELVASISRRGGSTYYADSVKGRFTISRDNAKNTVSLQMNSLKPEDTAVYYCYPSCGPYRYYYCGQGTQVTVSS | low polyreactivity
4 | QVQLVESGGGLVQAGGSLRLSCAASGSIIGRYTMGWYRQAPGKERELVAAISRSGGSTYYADSVKGRFTISRDNAKNTVYLQMNSLKPEDTAVYYCAARYRAKRRYYYWGQGTQVTVSS | high polyreactivity
5 | QVQLVESGGGLVQAGGSLRLSCAASGSIFRIYAMGWYRQAPGKERELVAAISRGSTRTYYADSVKGRFTISRDNAKNTVYLQMNSLKPEDTAVYYCAKRGISPYGYWGQGTQVTVSS | high polyreactivity
6 | QVQLVESGVGLVQAGGILRLSCAASGRIFYKNAMVWYRQAPGKERELVATITYSDGTTYYADSLKGRFTISRDNAKNTVYLQMNSLKPEDTAVYYCAAQTDSVESDYWGQGTQVTVSS | low polyreactivity
7 | QVQLVESGGGLVQAGGSLRLSCAASGSIFGQYAMGRYRQAPGKERDLVAAIDWSSASTYYADSVKGRVTISRDNAKNTVYLQMNSLKPEDTAVYDCNAVGKYYRYDYWGQGTQVTVSS | high polyreactivity
8 | QVQLVESGGGLVQAGGSLRLSCAASGSNFPVYAMGWYRQAPGKEREFVAAISYSGGGTYYADSVKGRFTISRDNAKNTVYLQMNSLKPEDTAVYYCAADVSGWEYAYWGQGTQVTVSS | low polyreactivity
9 | QVQLVESGGGLVQAGGSLRLSCAASGITFSYNAMGWSRQAPGKERELVAAISSNSDSTYYADSVKGRFTISRDNAKNTVYLQMNSLKPEDTAVYYCAADSPDDPDYSGFYYWGQGSQVTVSS | low polyreactivity
10 | QVQIVESGGGLVQAGGSLRLSCAASGLIFYAYAMGWYRQAPGKERELVAAMSYSGGSTYYADSVKGRFTISRDLAKNTVYLQMNSLKPEDTAVYYCAADDGISTYEYWGQGTQVTVSS | high polyreactivity
11 | QVQLVESGGGLVQAGGMRRLSCAASGRTFGQYVMGWSRQAPGKERELVAAISRRGGSTYYADSVKGRFTISRDNAKNTVYLQMNSLKPEDTAVYYCAPAGTYTGGEGYLGQGTQVTVSS | high polyreactivity
12 | QVQLVESGGGLVQAGGSLRLSCAASGSIFTEKAMGWYRQAPGKERELVATITITGSTNYADSVKGRFTISRDNAKNTVYLQLNSLKPEETAVYYCNADLYIAFSASAYDYWGQGTQVTVSS | low polyreactivity
13 | QVQLVESGGGLVQAGGSLRLSCAASGRIFRYYAMGWYRQAPGKERELVAAISTAGSTYYADSVMGRFTISRDNAKNTVYLQMNSLKPEDTAVYFCAARTYRSVYGPEYGYWGQGTQVTVSS | high polyreactivity
14 | QVQLVESGGGFVQAGGSLRVSCAASGSIFGSYAMGWYRQAPGKERELVADISSGGSTNYADSVKGRFTISRDNAKNTVYLQMNSLKPEDTAVYYCNADDPAGYLYWWGSWLESDYWGQGTQGTVSS | low polyreactivity
15 | QLQLQESGGGLVQAGGSLRLSCAASGSNSRYYDMGWYRQAAGKEREFVAGISGGAITYYEDSVKGRFTISRDNANITVYVQMNSLKPEDTAVYYCAADTGDYQYHSYWGQGTQVTVSS | low polyreactivity
16 | QVQLEESGGGLVQAGGSLRLSCAASGIIFHEYALGWYRQAPGKERELDASISWNDGSTYADSVKGRFTISRDNAKNTVYLQMNSQKPEDTAVYYCAADYPYYPFSSIYDYWGQGTQVTVSS | low polyreactivity
17 | QVQLVESGGGLVQAGGSLRLSCAASGITYSYYAMGWYRQAPGKEREFVAAISRTGTSTYYADSVKGRFTISRDNAKNTVYLQMNSLNPEDTADYFCAAVPRHPYHDKYDYWGQGTQVTVSS | high polyreactivity
18 | QVQLVESGGGLVQAGGSLRLSCAASGRTFTVYAMGWYRQAPGKEREFVASISKSGGRTYYADSVKGRFTISRDNAKNTVYLQMNSLKPEDTAVYYCAKVETYLQIAYRRGYDSWGQGTQVTVSS | low polyreactivity
19 | QVQLVESGGGLVQAGGSLRLSCAASGLIFDTNAMGWYRQAPGKERELVAAISLDGGSTYYADSVKGRFTISRDNAKNTVYLQMNSLKPEDTAVYYCNADYYANSITYDSWGQGTQVTVSS | low polyreactivity
20 | QVQLVESGGGLVQAGGSLRLSCAASGRIFSRYTMGWYRQAPGKERELVAAISSRGGSTYYADSVKGRFTISRDNAKNTVYLQMNSLKREDTAVYYCNTPSYSGSSPYDHWGQGTQVTVSS | high polyreactivity
21 | QVQLVESGGGLVQAGGSLRLSCAASGSILRPNAMGWYRQAPGKERELVAAITTTGGSTYYADSVKGRFTISRDNAKNTVYLLMNRLKPEDTAVYYCAAEYVYLYYLYLYYYWGQGTQVTVSS | high polyreactivity

Row | Sequence | polyreactivity (PSR sort gate)
22 | QVHLVESGGGLVHAGGSLRLSCAASGSTFDYYAMGWYRQEHGKERELVAAISSGGSTYYADSVKGSFTISRDNPKNTVYLQMNSRKPEDTAVYYCAAVYRGQFSRYDYWGQGTQVTVSS | low polyreactivity
23 | QVQLVESGGGLVQAGGSLRLSCAASGSTFDSYAMGWYRQAPGKERELVAVINSGGSTNYADSVKGRFTISRDNAKNTVYLLMNSLKPEDTAVYYCSAEERYRWHVVGWGYWYDYWGQGTQVTVSS | low polyreactivity
24 | QVQLVESGGGLVQAGGSLRLSGAASGSTCYFNAQGWFRPAPGKERELVAAITYSGGSTYYADSVKGRFTISRDNAKNTVYLQLNSLKPEDTAVYYCAAQWRRHSTRSRYYYWGQGTQVTVSS | high polyreactivity
25 | QVQLVESGGGLVQAGGSLRLSCAASGSTFVWYAMGWYRQAPGKERELVAAISSGGSTNYADSVKGRFTISRDNAKNTVYLQMNSLKPEDTAVYYCAAKAYFSSYWRWRGAMDHWGQGTQVTVSS | low polyreactivity
26 | QVQLVESGGGLVQAGGSLRLSCAASGSTFVYYAMGWYRQAPGKERELVAAISSSGGTTYYAVSEKGRFTISRDYGKNTGYLLMNSLKPEDTAVYFCAAPYASRGYEYWGQGTQVTVSS | high polyreactivity
27 | QVQREESGGGLVQAGGSLRLSCAASGITFVLNVMGWYRQAPGKETELLAAISASGGRTYYADSVKGRFTISRDNAKNTVYLQMNSLKPEDTAVYYCNAVLPRYTFRSGVFEYDWGQGTQVTVSS | high polyreactivity
28 | QVQLVESGGGLVQAGGSLRLSCAASGRTFQYYTMGWYRQAPGKERELVAAITWRGGTTYYADSVKGRFTISRDNAKNTVYLQMNSLKPEDTAVYYCAAYSPDYGFDYWGQGTQVTVSS | high polyreactivity
29 | QVQLVESGGGLVQAGGSLRLSCAASGLTITYNAMGWYRQAPGKERELVAAISWSGDSTYADSVKGRFTISRDNAKNTVYLQKNSLKPEDTAVYYCAVPKYYYYVSRFNYWGQGTQVTVSS | high polyreactivity
30 | QVQLVASGGGLVQAGGSLRLSCAASGLIFYIYMGWYRQGPGKERELVAVISSSGNSTYYADSVKGRFTISRDNAKNTVYLQMNSLKQEDTAVSYCNASAYYPPSSSRYDYWGQGTQVTVSS | low polyreactivity
31 | QVQLVESGGGLVQAGGSLRLSCAASGITFTSNTMGWYRQAPGKERELVAAISKSGGSTYYADSVKGRFTISRDNEKNTVYLQMNSLKPEDTAVYYCNTVSFYDPFGAYGYWGQGTQVTVSS | high polyreactivity
32 | QVQLVESGGGLVQAGGSLRLSCAASGSILSYYAMGWYRQAPGKERELVAAISSTGSTNYADSVKGRFTISRDNAKNTLYLQMNSLKPEDTAVYYCATDGDPYADEGGYWGQGTQVTVSS | high polyreactivity
33 | QVQLVESGGGLVQEGGSLRLSCASSGITFYSNAMGWYRQAPGKERELVATITRGGSTYYADSVKGRFTISRDNAKTTVYLHMNSLKPEDTAVYYCAADYSYRGREYGYWGQGTQVTVSS | low polyreactivity
34 | QVQLVESGGGLVQAGGILLLSCAASGSIFKPYAMGWYTQAPGKERELVAAISKRGGSTSYADSVKGRFTISRDNAKNSVYLQMNSLKPEDTAVYYCAAVAAFSGLSWYDYWGLGTQVTVSS | high polyreactivity
35 | QVQLVESGGVLVQAGGSLRLSCAASGSTFLDYAMGWYRQAPGKERELVAAITSGGSTYYADSVKGRFTISRDNAKNTVDLHMKSMIPEDTAVYYCAADSVTGNAPSLVGDIYYYWGQGTQVTVSS | low polyreactivity
36 | QVQLVESGGGLVQAGGSLRLSCAASGFIFDYYAMGWYRQAPGKERELVAGISWSGGSTYYADSVKGRFTISRDNAKNTVYLQMNSLKPEDTAVYYCNAEYSVPFYLYYYWGQGTQVTVSS | low polyreactivity
37 | QVQLVESGGGLVQAGGSLRLSCAASGLTFGDYTMGWYRQAPGKERELVAAITWSGASTYYADSVKGRFTISRDNAKNTVYLEMNSLKPEDTAGYYCAAERTPSYRAYDYWGQGTQVTVSS | low polyreactivity
38 | QVQLVESGGGLVQAGGSLRLSCPASGSTFRSNVMGWYRQAPGKERELVAAITSSGGSTYYADSVKGRFTISRDNAKNTVYLQMNSLKPEDTAVYYCAAVGYGWDPYKRLVRHSYDSWGQGTQVTVSS | low polyreactivity
39 | QVQLVESGGGLVQAGGSLRLSCAASGSIFGVNAMGWYRQAPGKERELVASITGGDSTNYADSVKGRFTISRDNAKNTVYLQMNSLKPEDTAVYYCAKDHYYRYEEGDYWGQGTQVTVSS | low polyreactivity
40 | QVQLVESGGGLVQAGGSLRLSCAASGRTFYWNAMGWYRQAPGKERELVAAITRNGGSTYYADSVKGRFTISRDNAKNTVYLQMNSLKPEDTAVYYCAARKRYGAGYDYWGQGTQVTVSS | high polyreactivity
41 | QVQLVESGGGLVQAGGSLRLSCAASGSIFAPNAMGWYRQAPGKERELVAAITYGGGRTYYADSVKGRFTISRDNAKNTVYLQMNSLNPEDTAVYYCNALFSVRGYTWRSAAQDMDYWGQGTQVTVSS | high polyreactivity
